Conditions: Saccharomyces cerevisiae (strain ATCC 204508 / S288c), pH 7, 30 °C, Urea, Fluorescence, Potassium phosphate 50 mM

Cytochrome c isoform 1 C108T, P00044, sequence (P00044 whole entry C108T, canonical isoform): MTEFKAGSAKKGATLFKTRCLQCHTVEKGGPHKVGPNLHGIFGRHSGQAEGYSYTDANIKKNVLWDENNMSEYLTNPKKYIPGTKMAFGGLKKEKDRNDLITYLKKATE
Cytochrome c isoform 1 R19C|C108T, P00044 R19C C108T, sequence (P00044 whole entry R19C/C108T, canonical isoform): as the sequence (P00044 whole entry C108T, canonical isoform) above, with R19C counted along it
Cytochrome c isoform 1 wild type, P00044, sequence (P00044 whole entry, canonical isoform): as the sequence (P00044 whole entry C108T, canonical isoform) above, with T108C counted along it
Cytochrome c isoform 1 D96C|C108T, P00044 D96C C108T, sequence (P00044 whole entry D96C/C108T, canonical isoform): as the sequence (P00044 whole entry C108T, canonical isoform) above, with D96C counted along it

Substance	ddG of mutation (higher = less stable) (structure 1YCC)	denaturant m value (structure 1YCC)	denaturant midpoint (higher = more stable) (structure 1YCC)	unfolding free energy (structure 1YCC)	denaturant m value	denaturant midpoint (higher = more stable)	unfolding free energy
Cytochrome c isoform 1 C108T, P00044	-4.09 kcal/mol	1.79 kcal/mol/M	3.6 M	6.48 kcal/mol	–	–	–
Cytochrome c isoform 1 D96C|C108T, P00044 D96C C108T	-0.91 kcal/mol	1.2 kcal/mol/M	2.8 M	3.3 kcal/mol	–	–	–
Cytochrome c isoform 1 R19C|C108T, P00044 R19C C108T	-4.21 kcal/mol	1.79 kcal/mol/M	3.7 M	6.6 kcal/mol	–	–	–
Cytochrome c isoform 1 wild type, P00044	–	–	–	–	0.91 kcal/mol/M	2.6 M	2.39 kcal/mol
